Assay: protease stability score; higher = more stable; yeast display proteolysis, trypsin and chymotrypsin;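 further: relative to predicted unfolded state with 0 unfolded-like and 1 meaning tenfold more protease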

Row | Sequence | protease stability score
1 | DEDEKNLEKVAHDFIRATETGNEKILHELLDPNTREEINGVDLHGRETIAKFFLDIRRNLGIKVRMRLRDWKIYNGVVELDTEVIIDVGDKRIEHKVVIYVVKYNGRWLIDKIEWI | 1.81
2 | REEEKFAIHLVRRVVEYLLTGDEDSLKRLADPNTRIHINGVDRHGMEESYKWWKSEIDHLRHHIVITRMRFIDGVIEVDIRLHSDFDGVRFSWNVHLILLVVDGRIKTDKMIVE | 1.26
3 | DEYKRDADEVIRLWAEAMETGDEKLFLELFDPDTRSIFNGVELHGRQDIEMWRNRYDHVRHVRTEVEDSHIYNGRVEDHVRLILDVEVNGQREHHSHEILVYSVKFDGRWHFTMVEIR | 0.607
4 | SEEDEDVKRILELWLRSEETGDEHLSLELADPNTRKHQGDKEFHGMSKLVQLLAELYRRADHSHFIEKRVEVFENHVRIVGHFVLIVGEFRIVVDILILARKIDGRWILTRVNWR | 1.51
5 | SEEEDRIRQALELELHYLRTGDEDSTRRLIDPHMKLTVNGKEHHGMDWFIEELRRVDHIEMHPHHIHSFGEKAHIRVKLTLHFDGVTFERDVTIVFHKVDGRWVIESMQLD | 1
6 | DEREDEVRLATEHVERILQTGDEELFRHFVDPRVRMDYNGKDVHGREVILEWIVKIKNLTVRIDDVEVQGDKMLIRSHWTIGDKQHHLRIIATKINGRWESTSVHIH | 1.02
7 | DEDDEVSKFVAHVLSRVFHTGDEENLQKLADPNVRLHIGDKHHIGRETFIRWLRHFLDRADHVDSDVHDVRSIDGRIWADTRLRLEINGQTIEREVIIVIHKINGRWILHRIEIR | 1.49
8 | DELDEFREYWIRYVEEVFRTGDFEKHLSLMDPNARVLVDGKELHGREFLEVHMRRIKNATVRDVHHHDMEIQGDKVTLDVDVHVNVNGRDVDKHVLIISEKVNGRWISRSLEVR | 0.628
9 | SEHKEEVHEMIKLFLEALRTGDEDWLKTMIDPNDRIRVGDKELHGREEFDKIVHFFKNARIHLHHYSVINGRVTIHMILHFNGKTFEIHIYAEKVDGRWRHRESEMHER | 1.38
10 | SEERHLEELMYKWVRQMIETGDEDLERKLADPHVRSDINGVDLHGREEMIKEIKRLEDWLGIDHREFKTITFINGRIHVHIKLNVNGKDIKSIHIYDVIDGRLKEVSVRFR | 1.19
11 | RDKERMVHFIANYVLHSVLTGDWKMLFDLLDPSMRLEIGEKDSHGRENAEKLLHEFLEKLGADHTDIRRSHVTFQGDKIIIIINTEIDINGVRHEIWVRVIILKIDGKWVLESIRIEIR | 1.54
12 | DEEEKLLEFLVEHIATILVTGDEDRWLTLADPDVKVIIDGRTFIGWEFLEELIHQIRIHRMRIRHFSFVNGRLVFIFSIDGTIGDKRDEHDTRYEMIKIDGRWRLKRVEIR | 1.48
13 | SEEEELHRLLRERYIKNALTGNEKHLRRLADPNTRNNVNGRTHHGWDFYTDMISRLGADHVQIHDRHVDIQGEYIDVHLEVELNINGKHHRLDVRIIILKVDGKWTLHSFEML | 0.553
14 | SEEEEEMRRMVDDIFRMLLTGDWRDFLHLADPTVRLHIGDKQAHGRTQVFELLKLYLHEWREKTIVHESIHHINGVSIIHGSLRVRINGQEHEFKVTWNIFIYDGRLKSMEIRFH | 0.337
15 | DEDTEQAERVSHIMLHLYHTGDEEKFNHLADPNVRVEVNGVEIIGRHAFMKHLREIRLHDLRIEEVHIRVFNGRLRIEIKGRMDGHFNGVTKRTEVDILIIVLKVDGRWHVHSFSETIH | 1.6
16 | NELEKWVEQATREILRVMETGDPNETEKLIDPHVRREQGEFIYHGWENITHFMEHARFERYKLHDVDLQGDYVNLNGRLDGVYNGKKERTEVEFYVLKINGRWHVTSMHVH | 1.28
17 | DEEEHNLKKFLEIFLKAERTGDEEALRRMLDPNTKFVVGDKTYHGREEYIRWLNEIRIHRTEDKHIEVQGNKLHMDTRRRMEIDGREIDTEVRLELEVINGVVKLIIVDIR | 1.86
18 | DEIEKEMLKRARDILENWVTGDEDEFNRLADPNVRFELVYGDKSHSHHGMENLKKWLEEWTKRVDHFDLKIKSQRVVGDKAETETKLILNYDGRRFEHDTRIDVVVVNGRIKQIRVEIR | 1.59
19 | DEREEHHEENARLLLEQFKTGNWDFLRSLADPNVQHNWDGRKSHGRESMVRLLIDHIRKVKGMRTEEKEVEFQGDKVILHGRVNINGREIEVIFILEVVDGRIKSLHIDFR | 0.697
20 | SEEEEELRIANELVKRSLDTGDEDLERELADPNTRVNYGDKILHGRHEVVRWLRRIDHIHVHWRDVRIYNGRIEMDGRLVLRVGDKSFSLETRIYMEKVDGQWVIKDHEIR | 0.314
21 | KEEEWLAREWLRLWFEAVMTGDEHRLNHMLDPHVRTIVGDYEDVGRERSSELFLEIRLDHMELTSLDVQGDYAHLEIRVDGTIDGKRIETEMRVTLNIVDGRFRTVEHRIS | 0.755
22 | SEEEEHIHRLARLYWRLWETGDEETLAHLMDPNVRQIIHVGDKEFHNVGREKIIKVTKHVFEKLGVKHIKIRDMRVINGVVEIDTEVNVDGRTFDTRIKVLIVDGRIHELRWIVE | 1.65
23 | SEDEHLTRNLAKDTIRALETGDEDRLNELFDPDVRLEIGDFMSHGRKSFTDTLRRFKNLTLHIHDMRVIGDKVHIDGEVDWNGQRRKTEIIIVIVDGKLKQIHYNIH | 0.874
24 | DERHELTRRVAVLWLHIFMTGDEDLFEKLADPTTRQEVLFNGRIYSLVGREEVSRWLREMVHELRFRHIEDKDKEIQGDKVLIDGILHIEAENHSTTIRSRIVLIVVNGKIHTIKFEFH | 1.55
25 | DKETKDSEKMSRMYFEYLLTGDFEKLLEMADPDVRFEFNGKEYIGMHETIEILERIWKDLGIKHSELKKVELQGEKAIIDGRIKYGDKEVNVKIILLVWNGKMREQRIHYQ | 1.1

Row | Sequence | protease stability score
26 | DEEKKLSDFAFRLLEENLRTGNEDDIRRYADPSVKIEVGDKTIHGMEAVSRVITEWRVHDLKIEREEIQGNKVHIDSNIDGQVGEKREHSLLILIMVKVNGRWVIKSIRIH | 0.386
27 | TDEKRDLDDWLHLLLHAIRTGDFRIEEKLADPNARLEFNGKEFIGMHHILNFLIEWRLHHMDIKHIEKQGDYLHIDSRLDVDFDGQRTILETHLVSLKINGRWILHSMSIG | 1.28
28 | EEEEKHAKHVAKEFLRLLFTGNEHRLKEYLDPNVRLDVNGQEFHGWEEIVKWLREIRFEDSRLHRIRVVGDKIDIDGELDGVINGRRVDRRSIIILFVVDGRYTEVTYRNI | 1.26
29 | SEDEKLAEDFFELLRHLIHTGDENTLREFADPRTRVQINGREIHGWDESARHIMHETLRFKNMRINLHLKDRRVIGEKMELDVKVQLHFNGQTEEFDFILYVEKVNGKWVIKSIHVH | 1.26
30 | DEDKESTDKMLELMLHLIKTGDFEIFEHLFDPNVRVNVGDKERVGWKEALKFRRQWRLHHMEVRDVHKVGDKMHVDSRIDGSVNGVREEDRTEIILVKYDGRWFITSIEFH | 0.99
31 | SETEKLLHEILEKLIRNEATGNFENIEQLLDPHYRVEIGEFEMHGMEEIIRWLNWVKREMRIKRRHIRTMTWQGDKALVDTELHIQVNGQHIRLDEYIVVLIINGRVKEVRVEHR | 0.943
32 | DEEERDMKHSSERLLRTWVTGDEDLLRTLADPDARHHLEVDGVHLHLHGMEHFSKWTTDLIEKLGIKHFDMKDLDVQGDKIHVHSTFHYGDKTFEVRLIVVKIDGKWLLSHSSFIVR | 0.299
33 | TQEKREADHSNKLEEHSHQTGDERLLTELADPHVKIFVDGQELHGREEFLRWVEEAGVKHFHVDHVRYQGDKLFVHGHFNINGREREVRLIYRKVNGKWYLHQMDIN | 1.23
34 | SEEEKTLERIARLHIQLWLTGDEDTLKKLADPDDRLVVDFENHTWEHHGREEVEKHTKHFLRHLRITHVDHHTVQIINGKAHMHTTVDFQVNGKIVKMHTTIIVVEVNGRLKFVRIEVH | 1.22
35 | NEEEHKLEEEFERLMHLLLTGDEEKLHRLADPNVKVNVNGKDLHGMELFFHVWWEELKRYDYWHITIRHIDSQGNKADSEVELNLVFNGKEIRIDSRMHLEVVNGRIKRIEIRPI | 1.63
36 | SEEEEDARRAFEMWFRVLMTGDEDQVDRLMDPHVRVDINGVDLHGRTTIRRLIHEEFNRADVRSFDVEHVDYQGDWVRLEVRLILVFNGKRLELKMELISRKINGRWILESQVVE | 1.39
37 | DEMDEHARDLFELLLRIWLTGDEHELRELADPHVRIHVGDKNHVGMDKFAHEFIRHVQERGVRIEIRIRDHHAINGVSHSDGEIVLNYDGREYRMDTKIIMVIYNGKVKELRFHIR | 1.39
38 | SEEHETMNKLASDLIHDWLTGDWENTKELLDPHVKIDERVNGKNHQHHGREELVRILRERHEKIKGLRISIHHWEVINGRLHMDLRLHINGKTFSVEIHITIVDGRVKHIHVDIN | 1.22
39 | DNEDKLAEQMLKEILELWHTGDEEKWSNLADPNTRIHINGQESHGRDNFHKFWEDFHSTLGIDVLKFSLKDFRIQGDKSRVDVETKVKQGDKSEHYRTFLIFIIVDGRVKTIEIRIK | 0.703
40 | DEEKERMEELLRLWVEAVRTGDEETLHKLMDPDVRIEYGDKDHHGREEMHRMMREWYERVDVINTYHVRRIKIVDGKARVDAELDGTIDGKRVIFREILISSKYNGQWTVTSISIK | 1.43
41 | SEDEEKATEMIEQLSRAILTGDEHTLHKLLDPRTRIVVNGRRIHGRELWLKFFRELRFHSDDMHIHSQEVQGDKAFFDVHWLGTRNINGVKEHSHTKTEVILLKYNGKWIVEELRYE | 2.17
42 | DELHEFLERVAERLVRMEHTGNEEELKKLMDPHVRLVVGDKTSVGREELLRFLEELKRKIGWTNFTVHVRRIEVQGDFFNVDMELHVNGRSLHVLIRVQIINGKLESIHWIWI | 2.03
43 | SEDDHELEHAARRHFRDFWTGDWKSISRFLDPDAKVELLVNGQHIEIHGREQIIEQMLRIPNLRFELKRVHTEIYGEKMHVHVRGVVEFDGVREDVVLIFIFEKFNGRWHISKESREFR | 0.35
44 | EEDEEVAYHFMEEWFHYVHTGNEEMLERMLDPDVKLTFDGKEFHGRETVLRAIIEWRIEHVRIKDFRFKVINGRAEIRLDGERRGQIDGVKRETRIIIEINVHKVDGKWKIERVELHTL | 2.1
45 | DEEEHSLRLALKILIHTRRTGDEHLLTEMADPNTRLDVNGVEVHGMEIFSKLTHEVVKRADHVEVHVKHIDIYGDKIRVHSEINYRQGDKEHSEKVHLVIKKFNGRWILHFVHIG | 1.48
46 | DEDKKRSEEISKTMIEAMETGDEDRLHELLDPHVRMEIRIGDKHIIDHGREMMLHWSRRYPNLQFRLSHIDVQGDKIHAHWLVHIGDKTRDVELELQVVDGQIHSIHLRIR | 1.52
47 | DDHKKRVDHLLRELLHHWRTGDFEHIYKLADPHVRFHIQIGEFHHEAVGWDEVVRLIQTHLDQLGVDHLRIRRVKSQGDKLYIETESYIGDFRIEFHIIWIVVNGRLKEQRMHIHEG | 1.45
48 | DESTRDFRQFFKLLVEHFKTGDWRRLADLFDPNVRVEINGRELHGRENIALWLRDRFKHLGVDHVHMRIRDLEVQGDKIRIHVELEIRVGDKVFYHETVLVIEKFDGRWIVHEEEYK | 1.49
49 | DEWTEDVREALHLIKHSIETGDPRLIEELADPNVRVLYGNKVYHGREKLSDLVTEWRTTHVDFHHVRVIGDKIDIDVIIRSEYNGRVVDLKEKIVATKINGKWILHSRNIH | 0.531
50 | SEDEELVHHIIKLWLESLVTGDERVFEELADPNVLLVVGEKTHHGRELYSEMFEILVTEIRFHEVHIRHYRHQGDKVKLDLRIDGEIDGQKTHDKAHIILHKIDGRWQLRSMIIH | 1.33

Reference: the NTF2 design screens of Basanta et al. (2020)
